# Paper PMC1618809 (Molecular Microbiology, 2006)
# T1: PfTrx-Px2Mut1 (Asn62Tyr63 replaced by AspPhe) (Plasmodium falciparum) (UniProt Q8I5Q6)
# T1 sequence: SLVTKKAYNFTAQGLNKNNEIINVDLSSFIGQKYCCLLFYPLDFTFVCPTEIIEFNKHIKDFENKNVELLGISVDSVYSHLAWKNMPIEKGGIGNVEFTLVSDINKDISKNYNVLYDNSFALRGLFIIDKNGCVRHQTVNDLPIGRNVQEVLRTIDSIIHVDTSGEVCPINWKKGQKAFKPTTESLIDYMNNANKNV
# T2: PfTrx-Px2Mut2 (Phe139Ala140 replaced by ValSer) (Plasmodium falciparum) (UniProt Q8I5Q6)
# T2 sequence: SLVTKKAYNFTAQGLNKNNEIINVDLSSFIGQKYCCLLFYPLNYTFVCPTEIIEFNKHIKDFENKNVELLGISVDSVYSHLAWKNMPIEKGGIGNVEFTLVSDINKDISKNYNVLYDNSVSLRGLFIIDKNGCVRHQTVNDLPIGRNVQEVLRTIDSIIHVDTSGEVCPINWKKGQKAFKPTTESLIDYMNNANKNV
# B1: Plasmodium falciparum thioredoxin 2 (PfTrx2), construct PfTrx2-S3 lacking the first 47 amino acids (domain or fragment)
# chain: MFKKVPRLQQNGSNIINGVNMKNTVIVLYFFAKWCQACTMQSTEMDKLQKYYGKRIYLLKVDLDKNESLARKFSVKSLPTIILLKNKTMLARKDHFVSSNDLIALIKKHL
# B2: Plasmodium falciparum mitochondrial peroxiredoxin (PfTrx-Px2), recombinant protein from construct pftrx-px2-2 lacking the first 19 amino acids (enzyme, UniProt Q8I5Q6 20-216, looked up)
# chain: SLVTKKAYNFTAQGLNKNNEIINVDLSSFIGQKYCCLLFYPLNYTFVCPTEIIEFNKHIKDFENKNVELLGISVDSVYSHLAWKNMPIEKGGIGNVEFTLVSDINKDISKNYNVLYDNSFALRGLFIIDKNGCVRHQTVNDLPIGRNVQEVLRTIDSIIHVDTSGEVCPINWKKGQKAFKPTTESLIDYMNNANKNV
# B3: Plasmodium falciparum thioredoxin 1 (PfTrx1), cytosolic thioredoxin (natural protein)
# chain: MVKIVTSQAEFDSIISQNELVIVDFFAEWCGPCKRIAPFYEECSKTYTKMVFIKVDVDEVSEVTEKENITSMPTFKVYKNGSSVDTLLGANDSALKQLIEKYAA
# Columns and labels:
# [1] = biological target: T1, PfTrx-Px2Mut1 (Asn62Tyr63 replaced by AspPhe) (Plasmodium falciparum)
# [2] = biological target: T2, PfTrx-Px2Mut2 (Phe139Ala140 replaced by ValSer) (Plasmodium falciparum)
# [3] = biological target: the molecule itself; test: AUC
binder,measurement,setting,value
B1,KM^app of PfTrx-Px2Mut1 for Trx2; coupled peroxidase assay,[1],7.7 µM
same,KM^app of PfTrx-Px2Mut2 for Trx2; coupled peroxidase assay,[2],12.1 µM
B2,stoichiometry N,[3],10
B3,KM^app of PfTrx-Px2Mut1 for Trx1; coupled peroxidase assay,[1],86.2 µM
same,KM^app of PfTrx-Px2Mut2 for Trx1; coupled peroxidase assay,[2],78.8 µM
